From the nanobody polyreactivity screen of Harvey et al. (2022)

Assay: yeast display, Sf9 membrane polyspecificity reagent, FACS + sequencing; frameworks hold sequencing errors
How it was run: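 In a synthetic yeast display library (Saccharomyces cerevisiae BJ5465), nanobody expression was induced with galactose for 36–48 hours. FACS gates were set low and high (top ~1%) using anti-HA fluorescence for expression and streptavidin fluorescence for binding of the Sf9 membrane reagent. Each polyreactivity label is drawn from the gate of origin.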

QVHLVESGGGLVQAGGSLRLSCAASGRIFAYYTMGWYRQAPGKERELVAAITSRGGSTYYADSVKGRFTISRDNAKKTVYLQMNSLKPEDTAVYYCADMRPSNVDYWGQGTQVTVSS
polyreactivity (PSR sort gate): high polyreactivity

QVQLVESGGGLVQAGGSLRLSCAASGSIFYNYSMGWYRQAPGKERELVATITRSDGSTYYADSVKGRFTISRDNAKNTVYLQMNSLKPEDTAVYYCNADSLWDRAFGYYYWGQGTQVTVSS
polyreactivity (PSR sort gate): low polyreactivity

QVQLVESGGGLVQAGGSLRLSCAASGRIFYYYAMGWSRPAPGTERELVASITFSGGRTFYADSVKGRFTISRDNAKKTVYLQMNSLKPEDTAVYYCAAVRWGRRSGGLVAEYDYWGQGTQVNVSS
polyreactivity (PSR sort gate): high polyreactivity

QVQLVESGGGLVQAGGSLRLSCAASGSIFTVNAMGWYRQAPGKERELVAAISDSGGSTYYADSVKGRFTISRDNAKNTVYLQMISLKPEDTAVYYCAVEIYYFVYGISYDYWGQGTQVTVSS
polyreactivity (PSR sort gate): high polyreactivity

QVQLVESGGGLVQAGGSLRLSCAASGFIFAKYAMGWYRQAPGKEMELVAAITSGGSTNYADSVKGRFTISRDNAKNTVYLQMNSLKPDDTAVYYCNRGFDWWYRYRHYDYWGQGTQVTVSS
polyreactivity (PSR sort gate): low polyreactivity

QVQLQESGRRPGAAGGSPRISCAASGYIFWVAVMGRYRQAPGKDRELVASIGFGCTTYYADSVKCRFTISRDNAKNSVYLQMISLKPEDTAVYYCAAPHYDWGELDYWGQGTQVPVSS
polyreactivity (PSR sort gate): low polyreactivity

QVQLVESAGGLVQAGGSLRLSCAASGFTFYFYAMGWSRQAPGKERELVAAISRSGSRTYYADSVKGRFTISRDNAKNTVYLQMNSLKPEDTAVYYCARVRPRGLYFVLHYDYWGQGTQVTVSS
polyreactivity (PSR sort gate): high polyreactivity

QVQLVESGGGLVQAGGSLRLSCAASGRTLYLNAMGWYRQAPGKERELVASISRGGGSTYYADSVKGRFTISRDNAKYTVYLQMNSLKPEDTAVYYCAATGAGDYDYWGQGTQVTVSS
polyreactivity (PSR sort gate): low polyreactivity

QVQLVESGGGLVQAGGSLRLSCAASGRIFKLYAMGLYRQAPGKERELVAASSKSGGSTYYADSVKGRFKISRDNAKNTVYLQMNSLKPEDSAVYYCNADPVRSGLDYWGQGTQVTVSS
polyreactivity (PSR sort gate): high polyreactivity

QVQLVESGGGLVQAGGSLRLSCAASGSIFGVYAMGWYRQAPGKERELVARISGSSGSTRYSDSVKGRFTISRDNAKNTVYLQMNSLKPEDTAVYYCAARAIFRQGDRIYDSWGQGTQVTVSS
polyreactivity (PSR sort gate): high polyreactivity

QVQLVESGGGLVQAGGSLRLSCAASGNNLLGYAMGWYRQAPGKEREWVAAISSSGGRTYYADSVKGRFTISRDNAKNTVYLQMNSLKPEDTAVYYCAAYTYSAGGYWGQGTQVTVSS
polyreactivity (PSR sort gate): high polyreactivity

QVQLVESGGGLVQAGGSLRLSCAASGSTFGWYVMGWYRQAPGKERELVAAITTGGSTNYADSVKGRFTISRDHAKNSVYLQMNSLKPEDTAVYYCGKAVTEVIYRGVTEGAVDYWGQGTQVTVSS
polyreactivity (PSR sort gate): low polyreactivity

QVQLVESGGGLVQAGGSLRLSCAASGSIFVRYAMGWYRQAPGKERQLVASIRSRGDSTYYADSVKGRFTISRDNAKNTVYLQMNSLKPEETAVYYCAARRYPPRMDYWGQGTQVTVSS
polyreactivity (PSR sort gate): high polyreactivity

QVQLVESGGGLVQAGGILRLRCAASGLTFVYYAMGWYRQAPGKERELVAGITSRGGRTYYADSVKGRFTISRDNAKNTVYLQMNSLKPEDTAGYYCNAVDRYNRFDYWGQGTQVTVSS
polyreactivity (PSR sort gate): high polyreactivity

QGQLVESGGGLVQAGGSLRFSCAASGRTLSAHAMGWYREAPGTERELVATISTRGGRTYYADSVKGRFTISRDHAKNTVYIQMNSLKPEHTAVYSCAVTIRAKYTLKEDYWGQGTQVTVSS
polyreactivity (PSR sort gate): low polyreactivity

QVQLVESGGGLVQAGGSLRLSCAASGFIRGYYDMGWYRQAPGKERELVAAISSGGRTYYADSVKGRFTISRDNAKNTVYLQMNSLKPEDTAVYYFNAYAPRRRFDYWGQGTQVTVSS
polyreactivity (PSR sort gate): high polyreactivity

QVQLVESGGGLVQAGGSLRLSCAASGSIFDYYAMGWYRQAPGKERELVATITSGVSTYYADSVKGRFTISRDNAKNTVYLQMNSLKPEDTAVYYCARDYAKSQDLYKYDYWGQGTQVTVSS
polyreactivity (PSR sort gate): low polyreactivity

QVQLVESGVRLVQSGGSLRLSCASSGFTIWRYAMGWYRQAPGKERELVAAISRSGTRTYYADSVKGRFTISRDNAKNTVYLQMNSLKPEDTAVYYCAADGLSLAYEHDYWGQGTQVTVSS
polyreactivity (PSR sort gate): high polyreactivity

QVKLVESGGGLVQAGGSLRLSCSASGFTFRFYAMGWYIQAPGKERELVASITRSGGSTYYADSVKGRFTISRDNAKNTVYLQMNSLKPEDTAVYYCAAYRCYVSYKEMYYLGQGTQVTVSS
polyreactivity (PSR sort gate): high polyreactivity

QVQLVESGGGLVQAGGSLRLSCAASGRTFGYNGKGWYRQAPGKERELVAAINSGGNTNYAESVKGRFTISRDNAKNTVYLQMNSLKPEDTAVYYCAKYGTLYEPVPNEYDNWGQGTQVTVSS
polyreactivity (PSR sort gate): low polyreactivity

QVQLVESGGGLVQAAGSLLLSCAASGSTFYYYAMGWYRQAPRKDRELVAAISRGGGSTYYADSVKGRFTISRDNAKTTVYLQMNSLKPQDTAVYYCYVSRFDSWGQGTKVTVSS
polyreactivity (PSR sort gate): high polyreactivity

QVQLVESGGGLVQAGGSLRLSCAASGFIFRGYAMGWYRQAPGKERELVAAISRSGGSTYYADSVKGRFTISRDNAKNTVYLQMNSLKPEDTAVYFCAVALFETGHYYWGQGTQVTVSS
polyreactivity (PSR sort gate): high polyreactivity

QVQLVESGGGLVQAGGSLRLSCAASGIIFYRYAMGWYRQAPGKERELVAAISSSGTNTYYADSVKGRFTISRDNAKNTVYLQMNSLKPEDTAVYYCNSDTWADRSTYDYWGQGTQVTVSS
polyreactivity (PSR sort gate): low polyreactivity

QVQLVESGGGLVQAGGSLRLSCAASGSIFTQYAMGWYRQAPGKEREFVARITGSGGRTYYADSVKGRFTISRDNAKNTVYLQMNSLKPEDTAVYYCAARDVRPYYVKPPVRYYYWGQGTQVTVSS
polyreactivity (PSR sort gate): high polyreactivity

QVQLVESGGGLVQAGGSLRLSCAASGRILADNAMGWYRQAPGKERELVAAISESGGSTYYADSVKGRFTISRDNAKNTVYLQMNSLKAEDTAVYYCAADTASIYYEYYYWGQGTQVTVSS
polyreactivity (PSR sort gate): low polyreactivity

QVQLVESGGCLVQAGGSLRLSCAASGLIFYENAMGWYRQAPGKERELVAAINYDGDSTYYADSVKGRFTISRDNAKITVYLQMNSLKPEDTAVYYCAADGGWVLFWMDYWGQGTQVTVSS
polyreactivity (PSR sort gate): low polyreactivity

QVQLVESGGGLVQAGGSLRLSCAASGSIILLYAMGWYRQAPGKERELVAAISRSGDSTHYADSVKGRFTISRDNAKNTVYLQMNSLKPEDTAVYYCAADGYHPYGGLYDYCGQGTQVTVSS
polyreactivity (PSR sort gate): low polyreactivity

QVQLEESGGGLVQAGGSLRLCCAASGFTFDYNAKGWYRQPPGKLRDLVAVISSSGSRTYYADSVKGRFTISRDYAKNTVYLQMNSLKPEDSAVYYWAGARIGTSDYWGQGTQVTESS
polyreactivity (PSR sort gate): high polyreactivity

QVQLVESGGGLVQAGGSLRLSCAASGRIFGYYAMGWSRQAPGKEREFVAAINWRGSSTTYADSVKGRFTISRDNAKNTVYLQMNSLKPEDTAVYYCKRVFGGGQWVYGYWGQGTQVTVSS
polyreactivity (PSR sort gate): high polyreactivity

QVQLVASGGGLVQAGGSLRLSCAASGRIFYAYAMGWYRQAPGKERELVAAITISASSTYYADSVKGRFTFSRDNAKNTVYLQMNSLKPEETAVFYCAAAYRRPWWYSYRYGYWGQGTQVTVSS
polyreactivity (PSR sort gate): high polyreactivity

QVQLVESGGGLDQAGGSLRLSCAASGSTFWVNTMGWYRQAPGKERELVAGITSNGGSTSYADSVKGRFTISRDNAKNSVYLQMNSLKREDTAVYYCNADTYPDYWAYLYDYWGQGTQVTVSS
polyreactivity (PSR sort gate): low polyreactivity

QVQLVESGGGLVQAGGSLRLSCAASGLIFDKYAMGWYRQAPGKERELVAAITRSSGTTYYADSVKGRFTISRDNAKNTVYLQMNSLKPEETAVYYCAARFIWGYWGVGSYYWGQATQVTVSS
polyreactivity (PSR sort gate): low polyreactivity

QVQLVESGGGLVQAGGSLRLSCADSGSTFRPYAMGWNRQAPGKERELVAAISSGDSTYYADSVKGRFTISRDNAKNTVYLQMNSLKPEDTAVYYCAKRKYWHRGGGYWGQGTQVTVSS
polyreactivity (PSR sort gate): high polyreactivity

QVQLVESGGGLVQAGGSLRLSCAASGSIFDHYARGWYRQAPGKDRELVAAISRSAGSTYYADSVKGRFTISRDHAKNTVYLQMNSLKPEDTAVYYCAADGKYYHRRPGWPIYDYWGQGTQVTVSS
polyreactivity (PSR sort gate): high polyreactivity

QVQLVESGGGLVQAGGSLSLSCAASGRLFARNTMGWYRQAPGKEREFVAAIDRRGGSTYYADSVKGRFTISRDNAKNTVYLQMNSLKPEDTAVYYCNKDTRRSGRMDSWGQGTEVTVSS
polyreactivity (PSR sort gate): low polyreactivity

QVQLVESGGRLVQAGGILRLSCPASGSTFKKYAMGWYRQTPGKERELVASINSSAGSTYYADSVKGRFTISRDNAKNTVYLQMNSLKPEDTAVYYCATCQKVYSGRYDYWGQGTQVTVSS
polyreactivity (PSR sort gate): low polyreactivity

QVQLVESGGGLVQAGGSLRLSCAASGSTFGIYAMGWYRQAPGKERELVAAITWRGSSTYYADSVKGRFTISRDNAKNTVYLQMNSLKPEDTAVYYCAAEDTFYEYYSWGQGTQVTVSS
polyreactivity (PSR sort gate): high polyreactivity

QVQLVESGGGLVQAGGSLRLSCAASGSTFFGNTMGWYRQAPGKERELVAAITYRGSTYYADSVKGRFTISRDNAKNTVYLQMNSLKPEDTAVYYCAADGRWYNSESEYDYWGQGTQVTVSS
polyreactivity (PSR sort gate): low polyreactivity

QVQLVESGGGLVQAGGSLRLSCAASGRTFVSYAMGWYRQAPGKERELVAAISGSGGSTYYADSVKGRFTISPDNAKKTGYLQMNSLKPEDTAVYYCHKGRPRKVNSEGFGYWGQGTQVTVSS
polyreactivity (PSR sort gate): high polyreactivity

QVQLVESGGGLVQAGGSLRLSCAASGSILGVYTMGWYRQAPGKERELVAAITSSSSSTYADSVKGRFTISRDNAKNTVYLQMNSLKPEDTAVYYCATRGWSKQLYGGYTQYYYWGQGTQVTVSS
polyreactivity (PSR sort gate): high polyreactivity

QVQLVESGGGLVQAGCSLRLSCAASGSTFYAYTKGGYRQAPGKERELVAAISWSDGTTYADSVKGRFTISRDNAKNTVYLQMNSLKPEDTAVYYCATDDVGPGLGYNYWGEGTQVTVSS
polyreactivity (PSR sort gate): low polyreactivity

QVHLVESGGGLVQAGGSLRLSCAASGSIFSWNAMGWYRQAPGKERELVAAISKRGTSTYYADSVKGRFTISRDNAKNTVYLQMNSLKPEDTAVYYCAARAQSYPYLSFDYWGQGTQVTVSS
polyreactivity (PSR sort gate): high polyreactivity

QVQLVESGGGLVQAGGSLRLSCAASGSISDVYAMGWYRQAPGKERELVAAYADSVKGRFTISRDNAKNTVYLQMNCLKPVDTAVYYCNFVETSQELGWQAFDYWGQGTQVTVSS
polyreactivity (PSR sort gate): low polyreactivity
